What all share (assay): cell_activity
The test system of data set [1] is ssMYF5 1.1 TALEN right (synthetic (Xanthomonas TALE-FokI)?). The settings on record: TALEN pair with P3, pig fibroblasts; site printed on top strand.
Data set [2] relates to ssMYOD 1.2 TALEN right (synthetic (Xanthomonas TALE-FokI)?). The settings on record: TALEN pair with P1, pig fibroblasts.
The subject of data set [3] is ssMYOD 1.2 TALEN left (synthetic (Xanthomonas TALE-FokI)?). The following applies: TALEN pair with P2, triplex transfection with HDR oligo, pig fibroblasts, HindIII RFLP.
For data set [4], the system named is ssMYF6 1.2 TALEN right (synthetic (Xanthomonas TALE-FokI)?). The settings on record: TALEN pair with P5, pig fibroblasts; site printed on top strand.
Data set [5] relates to ssMYF6 1.2 TALEN left (synthetic (Xanthomonas TALE-FokI)?). The settings on record: TALEN pair with P6, triplex transfection with HDR oligo, pig fibroblasts, HindIII RFLP.
Data set [6] deals with ssMYF5 1.1 TALEN left (synthetic (Xanthomonas TALE-FokI)?). The settings on record: TALEN pair with P4, triplex transfection with HDR oligo, pig fibroblasts, HindIII RFLP.

With “AAATCCACCACCATGG (double strand) [ssMYF5 1.1 right half-site]”, the activity (% HDR alleles) in data set [1] came to 31.

In data set [2], “AGGCTGCCCAAGGTGG (double strand) [ssMYOD 1.2 right half-site]” yielded an activity (% HDR alleles) of 14.

Consider “CAAGAGGTGCACCAC (double strand) [ssMYOD 1.2 left half-site]”, for which, in data set [3], the activity (% HDR alleles) is 14.

As to “GACAGCAGTGGAGAGGA (double strand) [ssMYF6 1.2 right half-site]”, the activity (% HDR alleles) in data set [4] turned out to be 36.

Regarding “GCCAGGACCAAATGCC (double strand) [ssMYF6 1.2 left half-site]”, the activity (% HDR alleles) in data set [5] came out at 36.

In data set [6], “GCCTCATGTGGGCCTG (double strand) [ssMYF5 1.1 left half-site]” showed an activity (% HDR alleles) of 31.

For the origin of these results see patent US20180177166.
